Literature values as cited in PMC3634864.

Target: Hemoglobin (Homo sapiens) (UniProt P69905)
Sequence of UniProt P69905 (P69905 2-142, chain 1 of 2): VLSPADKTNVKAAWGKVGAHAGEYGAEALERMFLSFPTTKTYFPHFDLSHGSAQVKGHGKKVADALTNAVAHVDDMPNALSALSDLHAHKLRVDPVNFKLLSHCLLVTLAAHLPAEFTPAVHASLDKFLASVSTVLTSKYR
Sequence of UniProt P69905 (P68871 2-147, chain 2 of 2, further chain): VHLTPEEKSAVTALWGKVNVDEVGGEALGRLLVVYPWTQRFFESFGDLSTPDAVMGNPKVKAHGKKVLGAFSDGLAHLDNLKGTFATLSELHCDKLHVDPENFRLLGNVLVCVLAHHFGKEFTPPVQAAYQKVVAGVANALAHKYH

- Kd: < 1 pM
Substance: Haptoglobin (from UniProt P00738)
